From US20160130361A1
Values belong to the substance of their own block, whether it stands above or below them.

What was measured:
[1] = target: BDD rFVIII (B domain deleted recombinant Factor VIII) (human) (UniProt P00451); experiment: SPR (ProteOn XPR36), mean of triplicate
rFVIIIFc [2] = experiment: SPR (ProteOn XPR36), mean of triplicate
rFVIIIFc [3] = experiment: method not printed on the sheet or in the legend (affinities of Example 3 are by SPR); SD 0.0023 printed in the same row
[4] = target: BDD rFVIII (B domain deleted recombinant Factor VIII) (human) (UniProt P00451); experiment: method not printed on the sheet or in the legend (affinities of Example 3 are by SPR); SD 0.0073 printed in the same row
[5] = target: BDD rFVIII (B domain deleted recombinant Factor VIII) (human) (UniProt P00451); experiment: SPR, ProteOn XPR36; run 1 of 3 (top panel) [continued]
rFVIIIFc [6] = experiment: as above
[7] = target: BDD rFVIII (B domain deleted recombinant Factor VIII) (human) (UniProt P00451); experiment: SPR, ProteOn XPR36; run 2 of 3 (middle panel) [continued]
rFVIIIFc [8] = experiment: as above
[9] = target: BDD rFVIII (B domain deleted recombinant Factor VIII) (human) (UniProt P00451); experiment: SPR, ProteOn XPR36; run 3 of 3 (bottom panel) [continued]
rFVIIIFc [10] = experiment: as above
[11] = target: BDD rFVIII (B domain deleted recombinant Factor VIII) (human) (UniProt P00451); experiment: SPR, ProteOn XPR36; run 1 of 3 (top panel)
rFVIIIFc [12] = experiment: SPR, ProteOn XPR36; run 1 of 3 (top panel)
[13] = target: BDD rFVIII (B domain deleted recombinant Factor VIII) (human) (UniProt P00451); experiment: SPR, ProteOn XPR36; run 2 of 3 (middle panel)
rFVIIIFc [14] = experiment: SPR, ProteOn XPR36; run 2 of 3 (middle panel)
[15] = target: BDD rFVIII (B domain deleted recombinant Factor VIII) (human) (UniProt P00451); experiment: SPR, ProteOn XPR36; run 3 of 3 (bottom panel)
rFVIIIFc [16] = experiment: SPR, ProteOn XPR36; run 3 of 3 (bottom panel)

Sequence of UniProt P00451 (P00451 other isoform, or with tags, fused parts or gaps): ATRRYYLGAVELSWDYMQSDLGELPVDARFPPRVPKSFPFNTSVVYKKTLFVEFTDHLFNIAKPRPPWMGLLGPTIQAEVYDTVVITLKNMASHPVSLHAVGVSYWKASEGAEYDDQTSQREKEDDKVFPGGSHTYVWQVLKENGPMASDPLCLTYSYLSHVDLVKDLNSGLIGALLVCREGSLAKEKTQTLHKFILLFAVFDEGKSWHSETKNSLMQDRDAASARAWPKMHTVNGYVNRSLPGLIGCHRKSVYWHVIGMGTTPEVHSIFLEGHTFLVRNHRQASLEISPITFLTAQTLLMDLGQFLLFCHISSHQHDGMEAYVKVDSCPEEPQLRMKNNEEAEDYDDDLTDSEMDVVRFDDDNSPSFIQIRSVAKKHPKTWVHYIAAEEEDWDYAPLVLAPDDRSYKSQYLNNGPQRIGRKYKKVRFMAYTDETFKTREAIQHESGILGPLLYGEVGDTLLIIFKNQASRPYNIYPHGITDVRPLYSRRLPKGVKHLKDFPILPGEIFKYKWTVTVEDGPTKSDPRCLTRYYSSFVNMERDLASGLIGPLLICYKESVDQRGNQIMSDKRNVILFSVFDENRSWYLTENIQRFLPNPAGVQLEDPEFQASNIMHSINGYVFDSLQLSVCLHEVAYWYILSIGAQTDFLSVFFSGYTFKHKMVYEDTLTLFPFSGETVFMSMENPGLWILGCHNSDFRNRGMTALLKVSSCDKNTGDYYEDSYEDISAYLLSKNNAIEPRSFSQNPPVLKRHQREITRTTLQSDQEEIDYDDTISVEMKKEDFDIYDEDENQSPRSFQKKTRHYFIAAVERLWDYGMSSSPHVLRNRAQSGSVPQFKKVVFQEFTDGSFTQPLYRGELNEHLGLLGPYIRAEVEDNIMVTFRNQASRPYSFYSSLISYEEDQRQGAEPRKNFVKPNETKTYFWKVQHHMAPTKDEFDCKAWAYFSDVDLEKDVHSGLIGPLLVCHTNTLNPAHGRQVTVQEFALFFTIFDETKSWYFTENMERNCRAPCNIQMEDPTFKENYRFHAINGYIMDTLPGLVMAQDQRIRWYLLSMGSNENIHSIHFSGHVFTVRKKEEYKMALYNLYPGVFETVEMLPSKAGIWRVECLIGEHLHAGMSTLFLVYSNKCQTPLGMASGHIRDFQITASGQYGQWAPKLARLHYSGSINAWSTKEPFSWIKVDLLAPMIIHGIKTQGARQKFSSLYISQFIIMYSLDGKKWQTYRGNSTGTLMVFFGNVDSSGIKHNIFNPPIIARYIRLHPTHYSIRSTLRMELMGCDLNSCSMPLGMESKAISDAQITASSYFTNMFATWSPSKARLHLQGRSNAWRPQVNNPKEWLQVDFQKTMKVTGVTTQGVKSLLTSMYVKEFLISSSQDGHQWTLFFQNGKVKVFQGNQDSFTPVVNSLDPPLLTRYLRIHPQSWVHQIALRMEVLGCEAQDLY

Kd [1]: 0.104 nM
Kd (rFVIIIFc [2]): 0.142 nM
Substance: ESH8 (antibody)

Kd [1]: 0.325 nM
Kd (rFVIIIFc [2]): 0.474 nM
Substance: GMA012 (antibody)

Kd [1]: 0.0731 nM
Kd (rFVIIIFc [2]): 0.0683 nM
Kd [5]: 0.077 nM
koff [5]: 0.000127 s⁻¹
kon [5]: 1.65e+06 M⁻¹ s⁻¹
Kd (rFVIIIFc [6]): 0.0647 nM
koff (rFVIIIFc [6]): 0.000102 s⁻¹
kon (rFVIIIFc [6]): 1.58e+06 M⁻¹ s⁻¹
Kd [7]: 0.0722 nM
koff [7]: 0.000124 s⁻¹
kon [7]: 1.72e+06 M⁻¹ s⁻¹
Kd (rFVIIIFc [8]): 0.0743 nM
koff (rFVIIIFc [8]): 0.000118 s⁻¹
kon (rFVIIIFc [8]): 1.59e+06 M⁻¹ s⁻¹
Kd [9]: 0.07 nM
koff [9]: 0.000119 s⁻¹
kon [9]: 1.7e+06 M⁻¹ s⁻¹
Kd (rFVIIIFc [10]): 0.066 nM
koff (rFVIIIFc [10]): 0.00011 s⁻¹
kon (rFVIIIFc [10]): 1.66e+06 M⁻¹ s⁻¹
Substance: GMA8020 (antibody)

Second part, the substance before the results:

Substance: ESH4 (antibody)
Kd [1]: 0.248 nM
Kd (rFVIIIFc [2]): 0.277 nM

Substance: ESH8 Fab
Kd (rFVIIIFc [3]): 0.142 nM
Kd [4]: 0.104 nM

Substance: GMA8011 (antibody)
Kd [1]: 0.0921 nM
Kd (rFVIIIFc [2]): 0.0873 nM
Kd [5]: 0.0855 nM
koff [5]: 0.000131 s⁻¹
kon [5]: 1.53e+06 M⁻¹ s⁻¹
Kd (rFVIIIFc [6]): 0.0913 nM
koff (rFVIIIFc [6]): 0.000133 s⁻¹
kon (rFVIIIFc [6]): 1.46e+06 M⁻¹ s⁻¹
Kd [7]: 0.0897 nM
koff [7]: 0.000138 s⁻¹
kon [7]: 1.54e+06 M⁻¹ s⁻¹
Kd (rFVIIIFc [8]): 0.0804 nM
koff (rFVIIIFc [8]): 0.00012 s⁻¹
kon (rFVIIIFc [8]): 1.49e+06 M⁻¹ s⁻¹
Kd [9]: 0.101 nM
koff [9]: 0.000143 s⁻¹
kon [9]: 1.42e+06 M⁻¹ s⁻¹
Kd (rFVIIIFc [10]): 0.0902 nM
koff (rFVIIIFc [10]): 0.000127 s⁻¹
kon (rFVIIIFc [10]): 1.4e+06 M⁻¹ s⁻¹

Substance: GMA8014 (antibody)
Kd [1]: 0.118 nM
Kd (rFVIIIFc [2]): 0.118 nM
Kd [11]: 0.126 nM
koff [11]: 0.000127 s⁻¹
kon [11]: 1e+06 M⁻¹ s⁻¹
Kd (rFVIIIFc [12]): 0.127 nM
koff (rFVIIIFc [12]): 0.000103 s⁻¹
kon (rFVIIIFc [12]): 809000 M⁻¹ s⁻¹
Kd [13]: 0.117 nM
koff [13]: 0.000131 s⁻¹
kon [13]: 1.12e+06 M⁻¹ s⁻¹
Kd (rFVIIIFc [14]): 0.139 nM
koff (rFVIIIFc [14]): 0.000104 s⁻¹
kon (rFVIIIFc [14]): 746000 M⁻¹ s⁻¹
Kd [15]: 0.114 nM
koff [15]: 0.000119 s⁻¹
kon [15]: 1.04e+06 M⁻¹ s⁻¹
Kd (rFVIIIFc [16]): 0.12 nM
koff (rFVIIIFc [16]): 0.000104 s⁻¹
kon (rFVIIIFc [16]): 865000 M⁻¹ s⁻¹
